Consider eight molecules from US9695426B2, “Biofuel production by recombinant microorganisms” (The Regents of the University of California, priority 2007, dated 2017).

Assay [1] concerns E. coli culture expressing kivd. Nature of the assay: Alcohol productions with the supply of 2-keto acids. It is filed as cell-based. As to conditions: 2-keto acid added to E. coli culture expressing kivd. The source says:
The addition of various 2-keto acids (see Table 13) to the E. coli culture expressing kivd confirmed the specific production of the corresponding alcohols by 2- to 23-fold.

Assay [2] has as its system endogenous 2-keto acids in E. coli. Nature of the assay: Alcohol productions with KDC and ADH in E. coli. It is filed as cell-based. The settings on record: KDC over-produced with Adh2 in E. coli; minimal media with 0.2 M glucose. The source says:
An enzyme in this alcohol production strategy is KDC, which is common in plants, yeasts and fungi but less so in bacteria. The aldehydes produced can then be converted to alcohols by an Adh, which is commonly found in many organisms. Some of the KDCs have broad-substrate ranges, while others are more specific. To test the capability of the endogenous 2-keto acids as a substrate for KDC in E. coli, five KDCs including Pdc6, Aro10, Thi3, from S. cerevisiae, Kivd from Lactococcus lactis, and Pdc from C. acetobutylycum were over-produced with alcohol dehydrogenase 2 (Adh2) of S. cerevisiae. E. coli cultures expressing these foreign genes were grown in a minimal media with 0.2 M glucose.

Turning to `CCC(C)C(=O)C(=O)O` (stereo not shown) [2-keto-3-methyl-valerate], the “Product 2-methyl-1-butanol” value in assay [1] amounted to 5284 µM.

With `CC(C)CC(=O)C(=O)O` [2-keto-4-methyl-pentanoate], the “Product 3-methyl-1-butanol” value in assay [1] is 3756 µM.

In the case of `CC(C)C(=O)C(=O)O` [2-keto-isovalerate], in assay [1], the “Product 2-phenylethanol” value was found to be 109 µM and the Product isobutanol came to 10016 µM.

Turning to `CCCC(=O)C(=O)O` [2-ketovalerate], in assay [1], the “Product 1-butanol” value amounted to 3926 µM, the “Product 2-phenylethanol” value stood at 66 µM and the “Product 3-methyl-1-butanol” value worked out at 52 µM.

Consider `O=C(O)C(=O)Cc1ccccc1` [phenylpyruvate], for which, in assay [1], the “Product 1-butanol” value was determined as 23 µM, the “Product 1-propanol” value turned out to be 8 µM, the “Product 2-phenylethanol” value was determined as 7269 µM and the “Product 3-methyl-1-butanol” value stood at 105 µM. Further, the Product isobutanol in assay [1] came to 64 µM.

B1: PDC6: 2-keto-acid decarboxylase Pdc6 from S. cerevisiae (protein, listed as Saccharomyces cerevisiae)
chain: MSEITLGKYLFERLKQVNVNTIFGLPGDFNLSLLDKIYEVDGLRWAGNANELNAAYAADGYARIKGLSVLVTTFGVGELSALNGIAGSYAEHVGVLHVVGVPSISAQAKQLLLHHTLGNGDFTVFHRMSANISETTSMITDIATAPSEIDRLIRTTFITQRPSYLGLPANLVDLKVPGSLLEKPIDLSLKPNDPEAEKEVIDTVLELIQNSKNPVILSDACASRHNVKKETQKLIDLTQFPAFVTPLGKGSIDEQHPRYGGVYVGTLSKQDVKQAVESADLILSVGALLSDFNTGSFSYSYKTKNVVEFHSDYVKVKNATFLGVQMKFALQNLLKVIPDVVKGYKSVPVPTKTPANKGVPASTPLKQEWLWNELSKFLQEGDVIISETGTSAFGINQTIFPKDAYGISQVLWGSIGFTTGATLGAAFAAEEIDPNKRVILFIGDGSLQLTVQEISTMIRWGLKPYLFVLNNDGYTIEKLIHGPHAEYNEIQTWDHLALLPAFGAKKYENHKIATTGEWDALTTDSEFQKNSVIRLIELKLPVFDAPESLIKQAQLTAATNAKQ
modifications: CDS (1)..(1692)
notes: 2-keto-acid decarboxylase Pdc6 from S. cerevisiae
For the molecule B1, in assay [2], the “Product 1-propanol” value was determined as 125 µM, the “Product 2-methyl-1-butanol” value is 56 µM, the “Product 3-methyl-1-butanol” value came to 92 µM and the Product isobutanol is 260 µM.

B2: ARO10: 2-keto-acid decarboxylase Aro10 from S. cerevisiae (protein, listed as Saccharomyces cerevisiae)
chain: MAPVTIEKFVNQEERHLVSNRSATIPFGEYIFKRLLSIDTKSVFGVPGDFNLSLLEYLYSPSVESAGLRWVGTCNELNAAYAADGYSRYSNKIGCLITTYGVGELSALNGIAGSFAENVKVLHIVGVAKSIDSRSSNFSDRNLHHLVPQLHDSNFKGPNHKVYHDMVKDRVACSVAYLEDIETACDQVDNVIRDIYKYSKPGYIFVPADFADMSVTCDNLVNVPRISQQDCIVYPSENQLSDIINKITSWIYSSKTPAILGDVLTDRYGVSNFLNKLICKTGIWNFSTVMGKSVIDESNPTYMGQYNGKEGLKQVYEHFELCDLVLHFGVDINEINNGHYTFTYKPNAKIIQFHPNYIRLVDTRQGNEQMFKGINFAPILKELYKRIDVSKLSLQYDSNVTQYTNETMRLEDPTNGQSSIITQVHLQKTMPKFLNPGDVVVCETGSFQFSVRDFAFPSQLKYISQGFFLSIGMALPAALGVGIAMQDHSNAHINGGNVKEDYKPRLILFEGDGAAQMTIQELSTILKCNIPLEVIIWNNNGYTIERAIMGPTRSYNDVMSWKWTKLFEAFGDFDGKYTNSTLIQCPSKLALKLEELKNSNKRSGIELLEVKLGELDFPEQLKCMVEAAALKRNKK
modifications: CDS (1)..(1908)
notes: 2-keto-acid decarboxylase Aro10 from S. cerevisiae
With B2, in assay [2], the “Product 1-butanol” value was found to be 95 µM, the “Product 1-propanol” value stood at 290 µM, the “Product 2-methyl-1-butanol” value stood at 652 µM and the “Product 2-phenylethanol” value was 469 µM. For the same molecule, in assay [2], the “Product 3-methyl-1-butanol” value was found to be 1099 µM and the Product isobutanol came to 2094 µM.

B3: Kivd: 2-keto-acid decarboxylase Kivd from Lactococcus lactis (protein, listed as Lactococcus lactis)
chain: MYTVGDYLLDRLHELGIEEIFGVPGDYNLQFLDQIISRKDMKWVGNANELNASYMADGYARTKKAAAFLTTFGVGELSAVNGLAGSYAENLPVVEIVGSPTSKVQNEGKFVHHTLADGDFKHFMKMHEPVTAARTLLTAENATVEIDRVLSALLKERKPVYINLPVDVAAAKAEKPSLPLKKENSTSNTSDQEILNKIQESLKNAKKPIVITGHEIISFGLEKTVSQFISKTKLPITTLNFGKSSVDEALPSFLGIYNGKLSEPNLKEFVESADFILMLGVKLTDSSTGAFTHHLNENKMISLNIDEGKIFNESIQNFDFESLISSLLDLSEIEYKGKYIDKKQEDFVPSNALLSQDRLWQAVENLTQSNETIVAEQGTSFFGASSIFLKPKSHFIGQPLWGSIGYTFPAALGSQIADKESRHLLFIGDGSLQLTVQELGLAIREKINPICFIINNDGYTVEREIHGPNQSYNDIPMWNYSKLPESFGATEERVVSKIVRTENEFVSVMKEAQADPNRMYWIELILAKEDAPKVLKKMGKLFAEQNKS
Take B3: in assay [2], the “Product 1-butanol” value was determined as 220 µM, the “Product 1-propanol” value stood at 520 µM, the “Product 2-methyl-1-butanol” value came out at 766 µM and the “Product 2-phenylethanol” value is 324 µM. Also, in assay [2], the “Product 3-methyl-1-butanol” value turned out to be 1495 µM and the Product isobutanol amounted to 5242 µM.
